From patent US20240294650A1 (Alector, published 2024)

T1: human MerTK (human, UniProt Q12866 21-999)
T1 construct: endogenous receptor on cells; also called human MerTK endogenously expressed on SK-MEL-5 cells; MerTK on human macrophages
T1 sequence: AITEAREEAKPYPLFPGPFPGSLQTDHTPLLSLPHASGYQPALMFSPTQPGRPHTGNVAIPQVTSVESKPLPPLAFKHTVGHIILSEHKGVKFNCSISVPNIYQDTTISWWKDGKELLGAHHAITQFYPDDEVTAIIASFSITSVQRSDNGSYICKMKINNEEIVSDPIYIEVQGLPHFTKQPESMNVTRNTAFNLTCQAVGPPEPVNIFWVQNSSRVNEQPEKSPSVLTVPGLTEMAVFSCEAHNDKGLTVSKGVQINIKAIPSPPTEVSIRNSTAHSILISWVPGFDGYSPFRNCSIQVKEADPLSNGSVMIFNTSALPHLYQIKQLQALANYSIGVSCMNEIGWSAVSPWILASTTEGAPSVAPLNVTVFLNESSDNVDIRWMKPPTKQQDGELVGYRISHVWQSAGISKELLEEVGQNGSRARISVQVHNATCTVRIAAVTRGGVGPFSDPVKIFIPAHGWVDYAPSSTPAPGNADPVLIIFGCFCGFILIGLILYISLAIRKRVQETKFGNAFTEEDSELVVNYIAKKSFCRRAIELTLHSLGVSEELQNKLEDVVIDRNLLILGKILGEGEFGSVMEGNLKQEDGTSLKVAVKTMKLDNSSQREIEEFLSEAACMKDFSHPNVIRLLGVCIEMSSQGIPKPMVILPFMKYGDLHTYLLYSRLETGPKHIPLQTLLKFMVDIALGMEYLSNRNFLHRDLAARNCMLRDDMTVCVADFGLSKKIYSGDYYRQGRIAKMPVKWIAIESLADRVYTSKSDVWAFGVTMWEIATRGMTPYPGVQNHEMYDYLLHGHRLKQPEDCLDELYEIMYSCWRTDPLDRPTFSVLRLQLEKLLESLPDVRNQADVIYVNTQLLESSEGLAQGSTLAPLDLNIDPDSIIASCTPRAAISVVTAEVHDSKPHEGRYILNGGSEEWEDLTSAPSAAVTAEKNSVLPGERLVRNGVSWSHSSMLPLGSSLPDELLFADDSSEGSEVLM

T2: recombinant cynomolgus MerTK extracellular domain (cynomolgus, UniProt Q12866 21-505 (human entry))
T2 construct: also called cyno MerTK ECD; not shown: polyHis or TEVS/Thrombin/murine IgG2a-Fc tag
T2 chain: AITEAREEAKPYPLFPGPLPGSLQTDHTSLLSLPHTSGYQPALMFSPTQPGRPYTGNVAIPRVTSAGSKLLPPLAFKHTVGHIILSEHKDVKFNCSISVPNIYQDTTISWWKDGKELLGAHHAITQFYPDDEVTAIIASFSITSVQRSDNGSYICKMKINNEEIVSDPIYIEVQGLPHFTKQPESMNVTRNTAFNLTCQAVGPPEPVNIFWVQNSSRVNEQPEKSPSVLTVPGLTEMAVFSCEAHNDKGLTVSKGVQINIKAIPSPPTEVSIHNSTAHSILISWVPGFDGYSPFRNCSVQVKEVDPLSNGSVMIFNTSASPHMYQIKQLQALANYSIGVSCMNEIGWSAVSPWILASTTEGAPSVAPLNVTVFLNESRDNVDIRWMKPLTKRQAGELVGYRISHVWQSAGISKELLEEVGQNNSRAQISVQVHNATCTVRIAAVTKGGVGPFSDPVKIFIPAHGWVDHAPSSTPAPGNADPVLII


Tests used:
human MerTK = target: T1, human MerTK; assay: FACS, SK-MEL-5 cells, 10 ug/ml
Protocol: To determine whether recombinant anti-human MerTK antibodies of the present disclosure bind to human MerTK endogenously expressed on SK-MEL-5 cells and CHO cells overexpressing mouse MerTK (CHO-muMerTK OE cells), as compared to A375 and parental CHO cells as negative controls, the following experiments were performed. SK-MEL-5 cells, A375 cells, CHO-muMerTK OE cells, and CHO parental cells were plated at 100,000 cells/well. Anti-MerTK antibodies were added to the cells at 10 μg/ml. After 60 minutes on ice, cells were washed and then stained with PE-conjugated goat anti-human IgG antibody (Southern Biotech Cat #2040-09, Birmingham, AL) in the presence of Fc block solution on ice for 30 minutes, and then washed twice with cold FACS buffer (2% FBS in PBS). Mouse anti-human MerTK-PE conjugated (Biolegend, Clone 590H11G1E3) or anti-mouse MerTK-PE conjugated (ThermoFisher, Clone DS5MMER) antibodies were used as positive controls. Stained cells were acquired on a BD FACS Canto II cytometer and the mean fluorescence intensity (MFI) was calculated with FlowJo.

[1] = target: T2, recombinant cynomolgus MerTK …; assay: SPR Carterra LSA, Ab immobilised
How it was run: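 Surface plasmon resonance on a Carterra LSA measured affinity of immobilized antibodies for human, cynomolgus or mouse MerTK ectodomain diluted in HBS-TE with 0.5 mg/ml BSA. Analytes flowed over the full array, surfaces were regenerated with Protein A/G Elution Buffer plus 1M NaCl or 10 mM Glycine pH 2.5, and spots binding under 25 RU were discarded before kinetic fitting.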

[2] = target: T2, recombinant cynomolgus MerTK …; assay: SPR Carterra LSA
Protocol: Binding kinetics of anti-MerTK IgG1 antibodies of the present disclosure to human, cyno, and murine MerTK were evaluated using a Carterra LSA instrument (Carterra, Salt Lake City, UT). […] A HC200M sensor chip (Carterra) was activated using the single channel flow cell with a 7-minute injection of a 1:1:1 mixture of 100 mM MES pH 5.5, 100 mM sulfo-NHS, 400 mM EDC (all reconstituted in MES pH 5.5; 100 μl of each mixed in vial immediately before running assay). After switching to the multi-channel array flow cell, the antibodies were injected over the activated chip in three 96-spot arrays for 10 minutes each. The remaining unconjugated active groups on the chip were then blocked by injecting 1M Ethanolamine pH 8.5 (Carterra) for 7 minutes using the single channel flow cell. The resulting sensor chip contained three spots for each antibody, at three different densities. Two independent experiments were performed as follows, resulting in an N of between one and six determinations for each antibody. Spots that yielded less than 25 RU of analyte binding were excluded from further analysis.
After priming with running buffer (HBS-TE, Carterra) with 0.5 mg/ml BSA (Sigma), the immobilized anti-MerTK antibodies were tested for their ability to bind to several forms of recombinant MerTK extracellular domain, including human, cynomolgus, and mouse orthologs as described above. Estimates of affinity were generated by injecting each analyte over the entire antibody array using the single channel flow cell. MerTK analytes were diluted with running buffer, in a series of six, three-fold serial dilutions starting from 1 μM for human and cynomolgus MerTK, and 600 nM for mouse MerTK. Analytes were injected for 5 minutes, and dissociation was followed for 10 minutes. After each analyte injection, antibodies were regenerated with either Protein A/G Elution Buffer (Thermo) with 1M NaCl (Teknova), or with 10 mM Glycine pH 2.5. Three buffer blanks were run between each series (one species per series). Data were processed and analyzed using NextGenKIT high-throughput kinetics analysis software (Carterra).

| MFI (human MerTK) | Kd [1] | Ratio of KD for Cynomolgus vs Human MerTK [2] | Binder |
| --- | --- | --- | --- |
| 40300 MFI | 60 nM | 0.9 ratio | MTK-213 (antibody, human IgG1, V domains shown) VH: QVQLQQPGAELVKPGASVKMSCKASGYTFTSYWITWVKQRPGQGHEWIGEIYPGIGSTNYNEKFKSKATLTVDTSSRTAYMQLSSLTSEDSAVYFCARGAYTKYYFDYWGQGTTLTVSS VL: DIVMTQSHKFMSTSVGDRVSITCKASQDVGDAVAWYQQKPGQTPKLLIYWASTRHTGVPDRFTGSGSGTDFTLTISNVQSEDLADYFCQQYSSYLMYTFGGGTKLEIK |
| 43300 MFI | – | – | MTK-216 (antibody, human IgG1, V domains shown) VH: EVQLVESGGGLVKPGGSLKLSCAASGFTFSDYGMHWVRQAPEKGLEWVAFISSGSTTIYYADTVKGRFTISRDNAKNTLILQMTSLRSEDTAIYYCTRGGFHLDYWGQGTTLTVSS VL: SIMMTQSPSSLAVSAGEKVTMGCKSSQSVLYSANQQNYLAWYQQKPGQSLKLLIYWASTRESGVPDRFTGSGSGTDFTLTISSVQAEDLAVYYCHQYFSSWTFGGGTKLEIK |
| 32200 MFI | 52 nM | 2.9 ratio | MTK-229 (antibody, human IgG1, V domains shown) VH: QVQLQQSGPELVKPGASVKISCKASGYEFSRSWMNWVKQRPGKGLEWIGRIYPGDGDTNYKGKLKGQATLTADKSSSTAYMQLSSLTFEDSAVYFCARGGGYYYDSRYEGFVYWGQGTVVTVSA VL: QIVLTQSPAIMSASPGEEVTMTCSASSSVSYMHWYQQKSGTSPKRWIYDTSKLASGVSGRFSGSGSGTSYSLTISSMEAEDAATYYCQQWSSNPPITFGAGTKLELK |
| 1190 MFI | – | – | MTK-207 (antibody, human IgG1, V domains shown) VH: QVQLKESGPGLVAPSQSLSITCTVSGISLTSYGVSWVRQPPGKGLEWLGIIWGDGSTNYHSALISRLSISKDNSKSQVFLKLNSLQTDDTATYYCAKGRYGNYEDWYFDVWGTGTTVTVSS VL: DIQMTQSPASLSASVGETVTITCRASGNIHNYLAWYQQKQGKSPQLLVYNAKTLAAGVPSRFSGSGSGTQYSLKINSLQPEDFGSYYCQHFWSIPLTFGAGTKLELK |
| 60200 MFI | 46 nM | 1.1 ratio | MTK-228 (antibody, human IgG1, V domains shown) VH: QDQLQQSGPELVKPGASVKISCKASGYSFTSYYIHWVKQRPGQGLEWVGWIFPGNGNTKYNERFKGKATLTADTSSSTAYMQLSSLTSEDSAVYYCARLGLIYALDYWGQGTSVTVSS VL: DAVMTQTPLSLPVSLGDQASISCRSSQSLENSNGNTYLHWYLQKPGQSPQLLIYRVSNRFSGVLDRFSGSGSGTDFTLKISRVEAEDLGVYFCLQVTHVPFTFGSGTKLEIK |
| 49000 MFI | 85 nM | 1.3 ratio | MTK-218 (antibody, human IgG1, V domains shown) VH: QVQLQQSGPELVKPGTSVKISCKASGYSFTSYYIHWVKQRPGQGLDWIGWIFPGNRNTQYNEKFKGKATLTADTSSSTAYMQLSSLTSEDSAVYYCARLGLIYALDYWGQGTSVTVSS VL: DAVMTQTPLSLPVSLGDQASISCRSSQSLENSNGHTYLHWYLQKPGQSPQLLIYRVSNRFSGVQDRFSGSGSGTDFTLKISRVEAEDLGVYFCLQVTHVPFTFGSGTKLEIK |
| 49100 MFI | 47 nM | 1.2 ratio | MTK-226 (antibody, human IgG1, V domains shown) VH: QVQLQQSGPELVKPGASVKISCKASGYSFTSYYIHWVKQRPGQGLEWIGWIFPGNGNTKYNENFRGKATLTADTSSSTAYMQLSSLTSEDSAVYYCARLGLIYALDYWGQGTSVTVSS VL: DAVMTQTPLSLPVSLGDQASISCRSSQSLESSNGNTYLHWYLQKPGQSPQLLIYRVSNRFSGVLDRFSGSGSGTDFTLQISRVEAEDLGVYFCLQVTHVPFTFGSGTKLEIK |
| 26800 MFI | 190 nM | 2.5 ratio | MTK-223 (antibody, human IgG1, V domains shown) VH: DVQLQESGPGLVKPSQSLSLTCSVTGYSITSGYYWNWIRQFPGNKLEWMGYISYDGTNNYNPSLKNRISITRDTSENQFFLKLNSVTTEDTATYFCVRGAGYWGQGTTLTVSS VL: not shown |
| 40900 MFI | 78 nM | 0.8 ratio | MTK-227 (antibody, human IgG1, V domains shown) VH: EVKLVESGGGLVQPGGSLSLSCAASGFTFTDNYMTWVRQPPGKALEWLGFSRNKANGYTTEYSASVKGRFTISRDSSQSILYLQMNALRAEDSGTYYCARFPPHYYAGGYFDVWGTGTTVTVSS VL: DIQMTQSPASLSASVGETVTITCRASENIYSYLAWYQQKQGKSPQLLVYNAKTLAEGVPSRFSGSGSGTQFSLKINSLQPADFGSYYCQHYYRTPPTFGGGTKLEIK |
| 40300 MFI | – | – | MTK-201 (antibody, human IgG1, V domains shown) VH: QVQLRQSGPGLVQPSQSLSITCTVSGFSLSNYGLHWVRQSPGKGLEWLGVIWSGGITDYNAAFISRLSIIKDNSRSQVFFKMNSLQADDTAIYYCARKGHDPYAMDFWGQGTSVTVSS VL: QIVLTQSPPIMSAFLGERVTMTCTASSSVSSSYLHWYRQMPGSSPKLWIYDTSNLASGVPARFSGSGSGTSYSLTISSMEAEDAATYYCHQYHHSPYTFGGGTKLEIK |
| 30500 MFI | 1.4 nM | 1.1 ratio | MTK-211 (antibody, human IgG1, V domains shown) VH: QVQLQQSGAELMKPGASVKLSCKATGYTFTGYWIEWVKQRPGHGLEWIGEILPGSGGSNYNEKFKGKATFTADTSSNTAYIQLSSLTTEDSAIYCCARGEPSYFSDAGFAYWGQGTLVTVSA VL: QIVLTQSPAVMSASPGEKVTMTCSASSSITYMHWYQQKPGTSPKRWIYDTSKLASGVPARFSGSGSGTSYFLTISSMEAEDVATYYCHQRSTYPYTFGGGTKLEIM |
